Source: US20220251152A1, “COMPOSITIONS AND METHODS FOR SELECTIVE PROTEIN DEGRADATION” (Novartis AG, priority 2019, published 2022)
Positions count from the first letter of the chain named.

B1: construct 774: signal peptide, the HilD tag, a furin cleavage site, and CAR19 (protein)
chain: MALPVTALLLPLALLLHAARPHKRSHTGERPFQCNQCGASFTQKGNLLRHIKLHTGEKPFKCHLCNTASAEARHIKAEMGGTGAEDPRPSRKRRSLGDVGEIVMTQSPATLSLSPGERATLSCRASQDISKYLNWYQQKPGQAPRLLIYHTSRLHSGIPARFSGSGSGTDYTLTISSLQPEDFAVYFCQQGNTLPYTFGQGTKLEIKGGGGSGGGGSGGGGSQVQLQESGPGLVKPSETLSLTCTVSGVSLPDYGVSWIRQPPGKGLEWIGVIWGSETTYYQSSLKSRVTISKDNSKNQVSLKLSSVTAADTAVYYCAKHYYYGGSYAMDYWGQGTLVTVSSTTTPAPRPPTPAPTIASQPLSLRPEACRPAAGGAVHTRGLDFACDIYIWAPLAGTCGVLLLSLVITLYCKRGRKKLLYIFKQPFMRPVQTTQEEDGCSCRFPEEEEGGCELRVKFSRSADAPAYQQGQNQLYNELNLGRREEYDVLDKRRGRDPEMGGKPRRKNPQEGLYNELQKDKMAEAYSEIGMKGERRRGKGHDGLYQGLSTATKDTYDALHMQALPPR
B2: construct 6761: signal peptide, CAR19, a 16KGS linker, the HilD tag, and a V5 (protein)
chain: MALPVTALLLPLALLLHAARPEIVMTQSPATLSLSPGERATLSCRASQDISKYLNWYQQKPGQAPRLLIYHTSRLHSGIPARFSGSGSGTDYTLTISSLQPEDFAVYFCQQGNTLPYTFGQGTKLEIKGGGGSGGGGSGGGGSQVQLQESGPGLVKPSETLSLTCTVSGVSLPDYGVSWIRQPPGKGLEWIGVIWGSETTYYQSSLKSRVTISKDNSKNQVSLKLSSVTAADTAVYYCAKHYYYGGSYAMDYWGQGTLVTVSSTTTPAPRPPTPAPTIASQPLSLRPEACRPAAGGAVHTRGLDFACDIYIWAPLAGTCGVLLLSLVITLYCKRGRKKLLYIFKQPFMRPVQTTQEEDGCSCRFPEEEEGGCELRVKFSRSADAPAYQQGQNQLYNELNLGRREEYDVLDKRRGRDPEMGGKPRRKNPQEGLYNELQKDKMAEAYSEIGMKGERRRGKGHDGLYQGLSTATKDTYDALHMQALPPRKGGGSKGGGTKGGGSKMHKRSHTGERPFQCNQCGASFTQKGNLLRHIKLHTGEKPFKCHLCNTASAEARHIKAEMGGKPIPNPLLGLDST
B3: construct 768: signal peptide, CAR19, a 16GS linker, the HilD tag, and a V5 (protein)
chain: B2 chain with K487G, K492G, K497G, K502G
B4: construct 773: modified signal peptide, the HilD tag, a furin cleavage site, and CAR19 (protein)
chain: MALPVTALLLPLALLLHAARPRSSLAHKRSHTGERPFQCNQCGASFTQKGNLLRHIKLHTGEKPFKCHLCNTASAEARHIKAEMGGTGAEDPRPSRKRRSLGDVGEIVMTQSPATLSLSPGERATLSCRASQDISKYLNWYQQKPGQAPRLLIYHTSRLHSGIPARFSGSGSGTDYTLTISSLQPEDFAVYFCQQGNTLPYTFGQGTKLEIKGGGGSGGGGSGGGGSQVQLQESGPGLVKPSETLSLTCTVSGVSLPDYGVSWIRQPPGKGLEWIGVIWGSETTYYQSSLKSRVTISKDNSKNQVSLKLSSVTAADTAVYYCAKHYYYGGSYAMDYWGQGTLVTVSSTTTPAPRPPTPAPTIASQPLSLRPEACRPAAGGAVHTRGLDFACDIYIWAPLAGTCGVLLLSLVITLYCKRGRKKLLYIFKQPFMRPVQTTQEEDGCSCRFPEEEEGGCELRVKFSRSADAPAYQQGQNQLYNELNLGRREEYDVLDKRRGRDPEMGGKPRRKNPQEGLYNELQKDKMAEAYSEIGMKGERRRGKGHDGLYQGLSTATKDTYDALHMQALPPR
B5: construct 769: signal peptide, CAR19, a 16GS linker, and the HilD tag (protein)
chain: EIVMTQSPATLSLSPGERATLSCRASQDISKYLNWYQQKPGQAPRLLIYHTSRLHSGIPARFSGSGSGTDYTLTISSLQPEDFAVYFCQQGNTLPYTFGQGTKLEIKGGGGSGGGGSGGGGSQVQLQESGPGLVKPSETLSLTCTVSGVSLPDYGVSWIRQPPGKGLEWIGVIWGSETTYYQSSLKSRVTISKDNSKNQVSLKLSSVTAADTAVYYCAKHYYYGGSYAMDYWGQGTLVTVSSTTTPAPRPPTPAPTIASQPLSLRPEACRPAAGGAVHTRGLDFACDIYIWAPLAGTCGVLLLSLVITLYCKRGRKKLLYIFKQPFMRPVQTTQEEDGCSCRFPEEEEGGCELRVKFSRSADAPAYQQGQNQLYNELNLGRREEYDVLDKRRGRDPEMGGKPRRKNPQEGLYNELQKDKMAEAYSEIGMKGERRRGKGHDGLYQGLSTATKDTYDALHMQALPPRGGGGSGGGGTGGGGSGMHKRSHTGERPFQCNQCGASFTQKGNLLRHIKLHTGEKPFKCHLCNTASAEARHIKAEMG
B6: construct 771: signal peptide, CAR19, the HilD tag, and a V5 (protein)
chain: MALPVTALLLPLALLLHAARPEIVMTQSPATLSLSPGERATLSCRASQDISKYLNWYQQKPGQAPRLLIYHTSRLHSGIPARFSGSGSGTDYTLTISSLQPEDFAVYFCQQGNTLPYTFGQGTKLEIKGGGGSGGGGSGGGGSQVQLQESGPGLVKPSETLSLTCTVSGVSLPDYGVSWIRQPPGKGLEWIGVIWGSETTYYQSSLKSRVTISKDNSKNQVSLKLSSVTAADTAVYYCAKHYYYGGSYAMDYWGQGTLVTVSSTTTPAPRPPTPAPTIASQPLSLRPEACRPAAGGAVHTRGLDFACDIYIWAPLAGTCGVLLLSLVITLYCKRGRKKLLYIFKQPFMRPVQTTQEEDGCSCRFPEEEEGGCELRVKFSRSADAPAYQQGQNQLYNELNLGRREEYDVLDKRRGRDPEMGGKPRRKNPQEGLYNELQKDKMAEAYSEIGMKGERRRGKGHDGLYQGLSTATKDTYDALHMQALPPRMHKRSHTGERPFQCNQCGASFTQKGNLLRHIKLHTGEKPFKCHLCNTASAEARHIKAEMGGKPIPNPLLGLDST
B7: 771 (protein)
chain: B6 chain

System: CAR19 fused to HilD tag and/or FurON
Experiment: Flow cytometry of surface CAR expression on JNL cells, 10 μM lenalidomide and/or bazedoxifene 24 hours
Type: cell-based, human
Conditions: for effect of lenalidomide on surface CAR expression of the construct: 10 μM lenalidomide for 24 hours
[1] = surface CAR on transduced JNL cells, 10 μM lenalidomide, 24 hours

From the text: Next, the surface expression of CAR19 on stably transduced JNL cells was examined by flow cytometry. […] On Day 2, cells were harvested, stained using biotinylated-protein L (Genscript, M00097) followed by PE conjugated streptavidin (Jackson Lab, 016-110-084), and subjected to flow cytometry analysis using Fortessa instrument.

Row | Molecule | effect of lenalidomide on surface CAR expression of the construct | other results
1 | B1 | did not impact surface CAR expression | 
2 | B2 | significantly reduced surface CAR expression | 
3 | B3 | significantly reduced surface CAR expression | 
4 | B4 | did not impact surface CAR expression | 
5 | B5 | significantly reduced surface CAR expression | 
6 | B6 | significantly reduced surface CAR expression | 
7 | B7 |  | % reduction in CAR expression [1]: 87%; Effect of lenalidomide [1]: Yes; CAR Expression (surface CAR on transduced JNL cells, flow cytometry, FurON constructs only in presence of bazedoxifene): Yes
